# Source: patent US5424205A, “Amyloidin protease and uses thereof” (Athena Neurosciences, Inc., priority 1993, dated 1995)
# “Also recorded” adds a separate entry of the source. Residues, ends and D or L forms follow the SMILES beside them.
# T1: clipsin/RMCP I (Rattus norvegicus, UniProt P09650)
# T1 sequence (P09650 21-260): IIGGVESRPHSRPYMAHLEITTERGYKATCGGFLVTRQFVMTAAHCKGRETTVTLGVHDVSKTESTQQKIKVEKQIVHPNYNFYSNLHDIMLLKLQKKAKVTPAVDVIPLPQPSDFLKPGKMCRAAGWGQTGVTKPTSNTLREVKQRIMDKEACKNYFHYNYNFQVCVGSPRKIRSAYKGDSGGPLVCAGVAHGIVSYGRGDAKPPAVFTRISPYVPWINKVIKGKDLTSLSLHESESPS
# B1: α1-ACT: general plasma serine proteinase inhibitor (protein, UniProt P01011 24-423, looked up)
# Alpha-1-antichymotrypsin: HPNSPLDEENLTQENQDRGTHVDLGLASANVDFAFSLYKQLVLKAPDKNVIFSPLSISTALAFLSLGAHNTTLTEILKGLKFNLTETSEAEIHQSFQHLLRTLNQSSDELQLSMGNAMFVKEQLSLLDRFTEDAKRLYGSEAFATDFQDSAAAKKLINDYVKNGTRGKITDLIKDLDSQTMMVLVNYIFFKAKWEMPFDPQDTHQSRFYLSKKKWVMVPMMSLHHLTIPYFRDEELSCTVVELKYTGNASALFILPDQDKMEEVEAMLLPETLKRWRDSLEFREIGELYLPKFSISRDYNLNDILLQLGIEEAFTSKADLSGITGARNLAVSQVVHKAVLDVFEEGTEASAATAVKITLLSALVETRTIVRFNRPFLMIIVPTDTQNIFFMSKVTNPKQA
# Columns and labels:
# clipsin/RMCP I = molecular target: T1, clipsin/RMCP I; experiment: Cleavage of APP592-601 by clipsin/RMCP I; type: biochemical; conditions: standard peptide cleavage assay
# Procedure: (§1) Routinely, 25 ul of enzyme solution were mixed with 10 ul of 1M Tris, pH 7.5, 5 ul 10 mM CaCl2, and 10 ul of a 2 mg/ml Stock solution of APP592-601 in water, or 20 mM Tris, pH 7.5, 0.15M NaCl, in 1.5 ml polypropylene microfuge tubes. The reaction mixtures were incubated for 60 min at 37° C. in a water bath, then quenched with 450 ul ice-cold ethanol, and incubated on ice for a further 20 min. They were centrifuged at 15,000×g for 10 min, and the supernatants transferred to new polypropylene tubes and dried under vacuum. The residue was dissolved in 0.5 ml water, centrifuged at 15,000×g for 5 min, and 200 ul of the supernatant injected onto a 0.46×30 cm Vydac C18 column equilibrated with 0.1% trifluoroacetic acid in water, at 1 ml/min. The column was immediately eluted with a linear gradient to 40% acetronitrile in 0.1% trifluoroacetic acid in water, over 20 minutes. The elution was monitored at 220 nm, and peaks were individually collected, hydrolyzed in 6N HCl at […] for 2 hr, then subjected to quantitative amino-acid analysis in an Applied Biosystems amino-acid analyzer. Once identified, times of elution were used to identify cleavage patterns.
# The procedure to isolate RMCP I was adapted exactly from that described by Nelson & Siman (1990), supra. […]
# amyloidin [1] = molecular target: T2, amyloidin (Homo sapiens, UniProt P52888); experiment: Cleavage of APP592-601 and its analogs by amyloidin (subsite requirements); type: biochemical; conditions: pH 7.5, CaCl2, 37° C., 60 min; RP-HPLC
# T2 construct: from tissue; a purification from blood is also described
# T2 sequence (P52888 whole entry): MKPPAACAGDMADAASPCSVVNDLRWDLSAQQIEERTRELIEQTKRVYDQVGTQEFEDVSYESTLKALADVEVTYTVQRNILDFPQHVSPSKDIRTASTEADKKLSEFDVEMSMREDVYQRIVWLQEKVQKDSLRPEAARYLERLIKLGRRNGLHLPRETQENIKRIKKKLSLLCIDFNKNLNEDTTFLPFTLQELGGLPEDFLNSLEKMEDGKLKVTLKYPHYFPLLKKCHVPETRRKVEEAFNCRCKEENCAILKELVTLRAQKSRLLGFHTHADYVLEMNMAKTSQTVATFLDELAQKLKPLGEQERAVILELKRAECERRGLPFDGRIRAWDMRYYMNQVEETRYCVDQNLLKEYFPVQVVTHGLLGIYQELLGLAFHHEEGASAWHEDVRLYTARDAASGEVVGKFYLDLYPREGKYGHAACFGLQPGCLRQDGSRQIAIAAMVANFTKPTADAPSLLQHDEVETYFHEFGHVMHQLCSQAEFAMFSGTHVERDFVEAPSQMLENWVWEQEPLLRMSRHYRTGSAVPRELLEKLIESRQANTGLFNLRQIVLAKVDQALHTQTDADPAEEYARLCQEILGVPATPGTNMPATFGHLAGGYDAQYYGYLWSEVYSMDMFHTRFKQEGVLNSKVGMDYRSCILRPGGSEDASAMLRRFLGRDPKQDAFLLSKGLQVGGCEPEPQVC
# Procedure: as §1
# In order to test the subsite requirements of amyloidin in the APP592-601 cleavage assay, analogs of this peptide substrate were synthesized.
# Following synthesis and purification, the peptides were then incubated with amyloidin under conditions identical to those developed with APP592-601. The underlined residues designated changes from the native peptide sequence while the arrows indicate peptide cleavage sites. [drawing 5]
# human skin chymase (HSC) [2] = experiment: Cleavage of APP592-601 by human skin chymase; type: biochemical; conditions: 200 ng enzyme; standard peptide cleavage assay
# Procedure: as §1
# [3] = tested on: extracts of mammalian tissues; experiment: Cleavage of amyloid-like substrate by soluble tissue extracts; type: biochemical; conditions: low-ionic strength extract; 0.1 to 10 mM Ca++; pH 6.5 to 8
# Procedure: To isolate the amyloid protease activities of the present invention, extracts of mammalian tissues were made in a variety of aqueous buffers, such as, for example, Tris, phosphate and HEPES, of about 20-50 mM pH 7.5, at 4°-8° C., using conventional homogenation procedures, such as, for example, Waring blender or Teflon homogenizer, followed by repeated centrifugation at 10,000-15,000×g. The supernatant soluble fraction from this stage ("low ionic strength") are decanted and the pellet is further extracted with high ionic strength salt, for example 1M NaCl, and a detergent, such as 1% Triton X-100. If, however, the amyloidin proteases are to be isolated from mammalian cells such as erythrocytes, conventional cell disruption techniques may be employed. Such techniques include homogenization, sonication, osmotic lysis and pressure cycling. Prior to disruption, the cells may be first concentrated by filtration, centrifugation, or other conventional methods.
# The various extracts are generally incubated with the amyloid-like substrates under a variety of conditions. […]
# Aliquots of the sample are analyzed by injection onto a C18 reversed-phase HPLC column and elution with a 0-60% gradient of 0.1% TFA/acetonitrile, to assess the degradation of the substrate. […] Little peptide cleavage activity was detected under other extraction conditions, for example, with high salt or detergents. […]
# amyloidin [4] = molecular target: T2, amyloidin; experiment: Inhibition of amyloidin by various inhibitors (APP592-601 peptide cleavage); type: biochemical
# human skin chymase (HSC) [5] = conditions: known before; cited from earlier work
# RMCP I [6] = experiment: Inhibition of RMCP I, Suc-Ala-Ala-Pro-Phe-pNA hydrolysing activity; type: biochemical, rat; conditions: pre-treatment with 200 ng
# brain protease = conditions: Abraham et al; cited from earlier work
# RMCP I [7] = conditions: known before; listed as α1 -antichymotrypsin; cited from earlier work
# RMCP I [8] = experiment: Inhibition of RMCP I, APP592-601 cleaving activity; type: biochemical, rat; conditions: pre-treatment with 200 ng
Molecule,site of cleavage of APP592-601 by clipsin/RMCP I (clipsin/RMCP I),site of cleavage by amyloidin (amyloidin [1]),site of cleavage of APP592-601 by human skin chymase (human skin chymase (HSC) [2]),major sites of cleavage by crude tissue extract [3],"% Control Activity (amyloidin [4]; assay conc. 30 ug/ml, 30 min pre-incubation, room temperature) [%]",inhibitory effect on amyloidin (amyloidin [4]; in words),"inhibition of HSC, as known (human skin chymase (HSC) [5])",inhibition of Suc-Ala-Ala-Pro-Phe-pNA hydrolysing activity (RMCP I [6]),inhibition of peptide cleavage by brain protease (brain protease),"inhibition of RMCP I, as known (RMCP I [7])",inhibition of APP592-601 cleaving protease activity (RMCP I [8])
CSCC[C@H](NC(=O)[C@H](CCCCN)NC(=O)[C@@H](NC(=O)[C@H](CCC(=O)O)NC(=O)[C@H](CO)NC(C)=O)C(C)C)C(=O)N[C@@H](CC(=O)O)C(=O)N[C@@H](C)C(=O)N[C@@H](CCC(=O)O)C(=O)N[C@@H](Cc1ccccc1)C(=O)N[C@@H](CCCNC(=N)N)C(=O)O [APP592-601] (Ac-SEVKMDAEFR-OH),cleavage at the Met-Asp bond; also recorded: selectively cleaves the amyloid substrate APP592-601 at the Met-Asp peptide bond; also recorded: all three proteases cleaved the APP592-601 peptide at the Met-Asp bond,three-site cleavage,cleavage at the Met-Asp bond; also recorded: all three proteases cleaved the APP592-601 peptide at the Met-Asp bond,"between the Met-Asp, the Asp-Ala, and the Ala-Glu bonds",,,,,,,
B1,,,,,121,"Neither α-1-proteinase inhibitor or α-1-antichymotrypsin, two general plasma serine proteinase inhibitors, had any inhibitory effect",inhibitable,completely eliminated,inhibited,strong inhibitor of RMCP I; also recorded: inhibitable,completely inhibited
